Experimental data reported in article PMC6829319, “Combination of SAXS and Protein Painting Discloses the Three-Dimensional Organization of the Bacterial Cysteine Synthase Complex, a Potential Target for Enhancers of Antibiotic Action” (International Journal of Molecular Sciences, 2019).

B1: O-acetylserine sulfhydrylase isozyme A (CysK) from E. coli (enzyme)
chain: KIFEDNSLTIGHTPLVRLNRIGNGRILAKVESRNPSFSVKCRIGANMIWDAEKRGVLKPGVELVEPTSGNTGIALAYVAAARGYKLTLTMPETMSIERRKLLKALGANLVLTEGAKGMKGAIQKAEEIVASNPEKYLLLQQFSNPANPEIHEKTTGPEIWEDTDGQVDVFIAGVGTGGTLTGVSRYIKGTKGKTDLISVAVEPTDSPVIAQALAGEEIKPGPHKIQGIGAGFIPANLDLKLVDKVIGITNEEAISTARRLMEEEGILAGISSGAAVAAALKLQEDESFTNKNIVVILPSSGERYLSTALFADLFTEKELQQ
notes: Carries the pyridoxal 5'-phosphate (PLP) cofactor; Dimer; source: E. coli BL21(DE3) or BL21(DE3) Tuner, pET21P vector, purified as previously described [50]

How the values were obtained:
[1] = target: B1; assay: other fluorescence titration; PLP fluorescence emission of CysK at 500 nm after excitation at 412 nm with increasing concentrations of CysE; 20 °C; stoichiometric titration, ratio of CysE to CysK; settings: both partners purified
[2] = target: the molecule itself; assay: SAXS; solution scattering at 10 °C; 20 mM sodium phosphate, 85 mM NaCl, 2 mM EDTA, 10 mM 2-MCE, pH 7.5; 0.5-1.5 mg/mL; CysK, CysE and CS (gel filtered and dialysed before) each measured; ab initio DAMMIF and SASREF rigid body models

Row | Binder | stoichiometry N [1] | stoichiometry N [2]
1 | serine acetyltransferase (CysE) from E. coli (enzyme, serine acetyltransferase (CysE), E. coli; Hexamer (dimer of trimers); source: E. coli BL21(DE3) or BL21(DE3) Tuner, pSH21p vector, purified, tag removed as previously described [50]) MSCEELEIVWNNIKAEARTLADCEPMLASFYHATLLKHENLGSALSYMLANKLSSPIMPAIAIREVVEEAYAADPEMIASAACDIQAVRTRDPAVDKYSTPLLYLKGFHALQAYRIGHWLWNQGRRALAIFLQNQVSVTFQVDIHPAAKIGRGIMLDHATGIVVGETAVIENDVSILQSVTLGGTGKSGGDRHPKIREGVMIGAGAKILGNIEVGRGAKIGAGSVVLQPVPPHTTAAGVPARIVGKPDSDKPSMDMDQHFNGINHTFEYGDGI | 1.7 | 6
2 | B1 | – | 2
